Source: patent publication US20210380680A1 (ZLLP, published 2021)

Legend:
[1] = biological target: T1, human Claudin 18.2 (CLDN18.2) (human, UniProt P56856-2 1-261); assay: FACS Exp. 1, MFI ratio CHO-18.2 over CHO-18.1
[2] = biological target: CLDN18.2 endogenously expressed on SNU620 gastric cancer cells (UniProt P56856); assay: FACS Exp. 3, SNU620 cells
[3] = biological target: T1, human Claudin 18.2 (CLDN18.2); assay: FACS Exp. 2, MFI ratio CHO-18.2 over CHO-18.1
[4] = biological target: T1, human Claudin 18.2 (CLDN18.2); assay: cell-based or functional assay
[5] = biological target: T2, CLDN18.2 endogenously expressed on SNU620 gastric cancer cells (UniProt P56856-2 1-261, limits assumed); assay: FACS Exp. 3, SNU620 cells
T2 construct: whole, on cells; also called SU620

[6] = biological target: T1, human Claudin 18.2 (CLDN18.2); assay: cell-based or functional assay; remark: listed apart in the source
[7] = biological target: T1, human Claudin 18.2 (CLDN18.2); assay: cell-based or functional assay; remark: listed apart in the source
[8] = biological target: T1, human Claudin 18.2 (CLDN18.2); assay: cell-based or functional assay; remark: listed apart in the source
[9] = biological target: T1, human Claudin 18.2 (CLDN18.2); assay: FACS on CHO-CLDN18.2 cells

Molecule	MFI SNU620 (@30 ug/ml) [2]	MFI_CHO-18.2/CHO-18.1 (@30 ug/ml) [1]	other results
human IgG1 isotype control (antibody)	15.7 MFI		MFI CHO-18.2/CHO-18.1 (@30 ug/ml) [1]: 1.1; MFI CHO-18.2/CHO-18.1 (@30 ug/ml) [3]: 1
hz282-1 (antibody, V domains shown, humanized IgG; constant regions not specified; also called hz282-l) VH: QVQLQESGPGLVKPSETLSLTCTVSGFSLTSYNVYWIRQPPGKGLEWIGVIWNTGATRYNSALKSRVTISVDTSKNQFSLKLSSVTAADTAVYYCARDSAMPAIPFAYWGQGTLVTVSS VL: DIVMTQSPDSLAVSLGERATINCKSSQSLFGSVRQKNYLAWYQQKPGQPPKLLIYLASTRESGVPDRFSGSGSGTDFTLTISSLQAEDVAVYYCQQYYDIPWTFGGGTKVEIK	69.6 MFI	262	
hz282-5 (antibody, V domains shown, humanized IgG; constant regions not specified) VH: QVQLQESGPGLVKPSETLSLTCTVSGFSLTSYNVYWIRQPPGKGLEWIGVIWNTGATRYNSALKSRVTISVDTSKNQFSLKLSSVTAADTAVYYCARDSAMPAIPFAYWGQGTLVTVSS VL: DIVMTQSPDSLAVSLGERATINCKSSQSLFGSVRQKNYLAWYQQKPGQSPKLLIYLASTRESGVPDRFSGSGSGTDFTLTISSLQAEDVAKYYCQQYYDIPWTFGGGTKVEIK	135 MFI	310	
hz282-9 (antibody, V domains shown, humanized IgG; constant regions not specified) VH: QVQLQESGPGLVKPSETLSLTCTVSGFSLTSYNVYWIRQPPGKGLEWIGVIWNTGATRYNSALKSRVTISVDTSKNQFSLKLSSVTAADTAVYYCARDSAMPAIPFAYWGQGTLVTVSS VL: DIQMTQSPSSLSASVGDRVTITCKSSQSLFGSVRQKNYLAWYQQKPGKAPKLLIYLASTRESGVPSRFSGSGSGTDFTLTISSLQPEDFATYYCQQYYDIPWTFGGGTKVEIK	308 MFI	163	
hz282-13 (antibody, V domains shown, humanized IgG; constant regions not specified) VH: QVQLQESGPGLVKPSETLSLTCTVSGFSLTSYNVYWIRQPPGKGLEWIGVIWNTGATRYNSALKSRVTISVDTSKNQFSLKLSSVTAADTAVYYCARDSAMPAIPFAYWGQGTLVTVSS VL: DIQMTQSPSSLSASVGDRVTITCKSSQSLFGSVRQKNYLAWYQQKPGKSPKLLIYLASTRESGVPDRFSGSGSGTDFTLTISSLQPEDFAKYYCQQYYDIPWTFGGGTKVEIK	144 MFI	201	
hz282-17 (antibody, V domains shown, humanized IgG; constant regions not specified) VH: QVQLQESGPGLVKPSETLSLTCTVSGFSLTSYNVYWIRQPPGKGLEWIGVIWNTGATRYNSALKSRVTISVDTSKNQFSLKLSSVTAADTAVYYCARDSAMPAIPFAYWGQGTLVTVSS VL: DIVMTQSPSSLSASVGDRVTINCKSSQSLFGSVRQKNYLAWYQQKPGKSPKLLIYLASTRESGVPDRFSGSGSGTDFTLTISSLQPEDFAKYYCQQYYDIPWTFGGGTKVEIK	176 MFI	249	
282A12F3 (T62A) (antibody, human IgG1, kappa, V domains shown, chimeric human IgG1, PTM site removed; also called 282A12F3-VH-NSA (T62A); 282A12 (T62A)) VH: QVQLKESGPVLVQPSQTLSLTCTVAGFSLTSYNVYWVRQPPGKGLEWMGVIWNTGATRYNSALKSRLSISKDTSKSQVFLKMNSLQTEDTATYYCARDSAMPAIPFAYWGQGTLVTVSS VL: DIVMTQSPSSLAVSAGETVTINCKSSQSLFGSVRQKNYLAWYQQKPGQSPKLLIYLASTRESGVPDRFIGSGSGTDFTLTISSVQAEDLAKYYCQQYYDIPWTFGGGTKLELKR		811	CDC EC50, human serum, CHO-CLDN18.2 [4]: 10.4 nM; MFI_SNU620 (@30 ug/ml) [5]: 1520 MFI; ADCC EC50, NCI-N87-18.2 cells, FcR-TANK effectors [6]: 73.2 nM; % specific cytotoxicity @ 6.67 nM, NUGC4-CLDN18.2, PBMC [7]: 21%; ADCC EC50, NUGC4-CLDN18.2 cells, PBMC (1 donor) [7]: 9.52 nM; % ADCC @ 6.67 nM, NCI-N87-CLDN18.2, FcR-TANK [8]: 14.6%; ADCC EC50, NCI-N87-CLDN18.2, FcR-TANK [8]: 2.25 nM; EC50 [9]: 4.45 nM; MFI_CHO-18.2/CHO-18.1 (@30 ug/ml) [3]: 768
